From patent US20230121197A1, “ANTIBODIES SPECIFICALLY BINDING THE CARBOXYMETHYLATED CATALYTIC SUBUNIT OF PROTEIN PHOSPHATASE 2A” (Medizinische Universität Wien, priority 2020, published 2023) come the findings set out here.

For data set [1], the system named is α-carboxymethylation of PP2Ac. Kind of data set: H358 xenograft tumors, single dose DT-061 time-course: methyl-PP2Ac by IHC and western blot with 7C10-C5. Format: in vivo, Balb/c nu/nu mice. As to the method: Next, the immunohistochemical analysis of xenograft tumors was performed. In brief, five micron sections from formalin-fixed paraffin-embedded (FFPE) specimens were deparaffinized in Histo-Clear and ethanol, exposed to 0.3% hydrogen peroxide to block endogenous peroxidase activity, and incubated for antigen retrieval with a citrate-based antigen unmasking solution (H-3300, Vector Laboratories) in a pressure cooker. Tumor sections were blocked with Mouse Ig Blocking Reagent (BMK-2202, Vector Laboratories), and incubated with anti-carboxymethyl PP2Ac specific antibody (7C10-C5) or an antibody recognizing total PP2Ac (ab106262) at 4° C. for two nights. Washes were performed in PBS. Slides were subsequently developed using secondary anti-mouse immunoglobulins/HRP (K1497, Agilent), DAB peroxidase substrate as the chromagen, and hematoxylin for counterstaining nuclei. Slides were sealed, and randomized for subsequent blinded review. Two independent researchers scored the level of carboxymethylated PP2Ac staining (with 7C10-C5) in one section per tumor (min. 6 tumors per treatment/control group). […] Scores from 0-2 are considered low staining, 2-4 as moderate, and 4-6 as high intensity staining. Based on these scores the data was plotted as the percentage of slides from each time point that fell into each group (FIG. 14I).
On the technique in general: In western blotting, separated proteins are transferred to a membrane and probed.

For data set [2], the system named is c-MYC. Description: H358 xenograft tumors, single dose DT-061 time-course: c-MYC IHC. Type of data set: in vivo, Balb/c nu/nu mice. Conditions: single dose DT-061.
The conditions of data set [3]: mouse, in vivo, 5 mg/kg.
Data set [4] addresses PP2Ac C-terminal peptide L309, ac-…-OH (unmodified) (human). Kind of data set: ELISA, peptide coated at 2 µg/ml, antibody 1 µg/ml. For orientation: ELISA stands for enzyme-linked immunosorbent assay.
In data set [5] the target is PP2Ac C-terminal peptide meL309, ac-…-CH3 (α-carboxymethylated) (human). Description: ELISA, peptide coated at 2 µg/ml, antibody 1 µg/ml, normalized, N=4.
In data set [6] the target is PP2Ac C-terminal peptide pT304-meL309, ac-HVTRRpTPDYFL-CH3 (human). Described as above.
The target of data set [7] is PP2Ac C-terminal peptide meL309, ac-…-CH3 (α-carboxymethylated) (human). Description: ELISA, peptide coated at 2 µg/ml, antibody 1 µg/ml, normalized, N=3.
Data set [8] has as its target PP2Ac C-terminal peptide pY307-meL309, ac-HVTRRTPDpYFL-CH3 (human). Described as above.
Data set [9] shares this target. Description: ELISA, 4-fold dilution series of coated peptide, normalized, N=3.
Data set [10] relates to LNCaP LCMT1 knockdown lines. Description: Colony formation and cell viability (cell titer glo) in LCMT1 knockdown prostate cancer cells. Conditions: colony formation (20 uM, 10-12 days) and cell viability (96 hours). Format: cell-based, human. (Cellular ATP, detected with luciferase, serves as a proxy for viable cell number.)

For `O=S(=O)(N[C@@H]1CCC[C@H](N2c3ccccc3Oc3ccccc32)[C@H]1O)c1ccc(OC(F)(F)F)cc1` [DT-061], in data set [1] (single dose DT-061), the “return of α-carboxymethylated PP2Ac to basal levels post treatment” value is at most 12 h. The “α-carboxymethylated PP2Ac in xenograft tumors after treatment” value in data set [1] (single dose DT-061 (5 mg/kg), IHC with 7C10-C5) is “increase in α-carboxymethylated PP2Ac at early time points (one, two, and three hours)”. Further, the “return of c-MYC to basal levels” value in [2] was at most 6 h. Also, in data set [2] (IHC), the “c-MYC in xenograft tumors after treatment” value was “significant decrease of c-MYC at early time points (one, two, and three hours)”. In addition, the “half-life obtained from serum” value in [3] amounted to 6.3 h.

With “rabbit monoclonal antibody E155 (Abcam #ab32104 lot GR17965-24)”, the fold higher ELISA signal intensity than with the α-carboxymethylated counterpart (meL309) in [4] fell in the range of 4.7 to 8.2 fold. Also, the fold-change of ELISA signal, L309 over meL309 in [5] was 4.65 fold. In data set [6], this compound displayed a fold-change of ELISA signal, L309 over pT304-meL309 of 50 fold; a fold-change of ELISA signal, meL309 over pT304-meL309 of 10.7 fold; a fold-change of ELISA signal, pT304-L309 over pT304-meL309 of 36.1 fold. Besides, the fold-change of ELISA signal, L309 over meL309 in data set [7] worked out at 8.2 fold. In [8], this compound displayed a fold-change of ELISA signal, pY307-L309 over pY307-meL309 of 2.5 fold and a fold-change of ELISA signal, pY307-meL309 over meL309 of 3.36 fold. The EC50 (read off the curve) in [9] came out at 0.3 µg/mL.

As for `CNC(=O)c1ccc(N2C(=S)N(c3ccc(C#N)c(C(F)(F)F)c3)C(=O)C2(C)C)cc1F` [enzalutamide], the “effect of LCMT1 knockdown on response to enzalutamide” value in data set [10] was “decreased sensitivity”.

The EC50 (read off the curve) is the midpoint of the concentration-response curve. Read a low EC50 (read off the curve) as higher potency in that assay.
